# Reference: patent publication US20040172681
# System: FasA from Brevibacterium ammoniagenes (multifunctional fatty acid synthase)
# Sequence (chain, as listed by the source): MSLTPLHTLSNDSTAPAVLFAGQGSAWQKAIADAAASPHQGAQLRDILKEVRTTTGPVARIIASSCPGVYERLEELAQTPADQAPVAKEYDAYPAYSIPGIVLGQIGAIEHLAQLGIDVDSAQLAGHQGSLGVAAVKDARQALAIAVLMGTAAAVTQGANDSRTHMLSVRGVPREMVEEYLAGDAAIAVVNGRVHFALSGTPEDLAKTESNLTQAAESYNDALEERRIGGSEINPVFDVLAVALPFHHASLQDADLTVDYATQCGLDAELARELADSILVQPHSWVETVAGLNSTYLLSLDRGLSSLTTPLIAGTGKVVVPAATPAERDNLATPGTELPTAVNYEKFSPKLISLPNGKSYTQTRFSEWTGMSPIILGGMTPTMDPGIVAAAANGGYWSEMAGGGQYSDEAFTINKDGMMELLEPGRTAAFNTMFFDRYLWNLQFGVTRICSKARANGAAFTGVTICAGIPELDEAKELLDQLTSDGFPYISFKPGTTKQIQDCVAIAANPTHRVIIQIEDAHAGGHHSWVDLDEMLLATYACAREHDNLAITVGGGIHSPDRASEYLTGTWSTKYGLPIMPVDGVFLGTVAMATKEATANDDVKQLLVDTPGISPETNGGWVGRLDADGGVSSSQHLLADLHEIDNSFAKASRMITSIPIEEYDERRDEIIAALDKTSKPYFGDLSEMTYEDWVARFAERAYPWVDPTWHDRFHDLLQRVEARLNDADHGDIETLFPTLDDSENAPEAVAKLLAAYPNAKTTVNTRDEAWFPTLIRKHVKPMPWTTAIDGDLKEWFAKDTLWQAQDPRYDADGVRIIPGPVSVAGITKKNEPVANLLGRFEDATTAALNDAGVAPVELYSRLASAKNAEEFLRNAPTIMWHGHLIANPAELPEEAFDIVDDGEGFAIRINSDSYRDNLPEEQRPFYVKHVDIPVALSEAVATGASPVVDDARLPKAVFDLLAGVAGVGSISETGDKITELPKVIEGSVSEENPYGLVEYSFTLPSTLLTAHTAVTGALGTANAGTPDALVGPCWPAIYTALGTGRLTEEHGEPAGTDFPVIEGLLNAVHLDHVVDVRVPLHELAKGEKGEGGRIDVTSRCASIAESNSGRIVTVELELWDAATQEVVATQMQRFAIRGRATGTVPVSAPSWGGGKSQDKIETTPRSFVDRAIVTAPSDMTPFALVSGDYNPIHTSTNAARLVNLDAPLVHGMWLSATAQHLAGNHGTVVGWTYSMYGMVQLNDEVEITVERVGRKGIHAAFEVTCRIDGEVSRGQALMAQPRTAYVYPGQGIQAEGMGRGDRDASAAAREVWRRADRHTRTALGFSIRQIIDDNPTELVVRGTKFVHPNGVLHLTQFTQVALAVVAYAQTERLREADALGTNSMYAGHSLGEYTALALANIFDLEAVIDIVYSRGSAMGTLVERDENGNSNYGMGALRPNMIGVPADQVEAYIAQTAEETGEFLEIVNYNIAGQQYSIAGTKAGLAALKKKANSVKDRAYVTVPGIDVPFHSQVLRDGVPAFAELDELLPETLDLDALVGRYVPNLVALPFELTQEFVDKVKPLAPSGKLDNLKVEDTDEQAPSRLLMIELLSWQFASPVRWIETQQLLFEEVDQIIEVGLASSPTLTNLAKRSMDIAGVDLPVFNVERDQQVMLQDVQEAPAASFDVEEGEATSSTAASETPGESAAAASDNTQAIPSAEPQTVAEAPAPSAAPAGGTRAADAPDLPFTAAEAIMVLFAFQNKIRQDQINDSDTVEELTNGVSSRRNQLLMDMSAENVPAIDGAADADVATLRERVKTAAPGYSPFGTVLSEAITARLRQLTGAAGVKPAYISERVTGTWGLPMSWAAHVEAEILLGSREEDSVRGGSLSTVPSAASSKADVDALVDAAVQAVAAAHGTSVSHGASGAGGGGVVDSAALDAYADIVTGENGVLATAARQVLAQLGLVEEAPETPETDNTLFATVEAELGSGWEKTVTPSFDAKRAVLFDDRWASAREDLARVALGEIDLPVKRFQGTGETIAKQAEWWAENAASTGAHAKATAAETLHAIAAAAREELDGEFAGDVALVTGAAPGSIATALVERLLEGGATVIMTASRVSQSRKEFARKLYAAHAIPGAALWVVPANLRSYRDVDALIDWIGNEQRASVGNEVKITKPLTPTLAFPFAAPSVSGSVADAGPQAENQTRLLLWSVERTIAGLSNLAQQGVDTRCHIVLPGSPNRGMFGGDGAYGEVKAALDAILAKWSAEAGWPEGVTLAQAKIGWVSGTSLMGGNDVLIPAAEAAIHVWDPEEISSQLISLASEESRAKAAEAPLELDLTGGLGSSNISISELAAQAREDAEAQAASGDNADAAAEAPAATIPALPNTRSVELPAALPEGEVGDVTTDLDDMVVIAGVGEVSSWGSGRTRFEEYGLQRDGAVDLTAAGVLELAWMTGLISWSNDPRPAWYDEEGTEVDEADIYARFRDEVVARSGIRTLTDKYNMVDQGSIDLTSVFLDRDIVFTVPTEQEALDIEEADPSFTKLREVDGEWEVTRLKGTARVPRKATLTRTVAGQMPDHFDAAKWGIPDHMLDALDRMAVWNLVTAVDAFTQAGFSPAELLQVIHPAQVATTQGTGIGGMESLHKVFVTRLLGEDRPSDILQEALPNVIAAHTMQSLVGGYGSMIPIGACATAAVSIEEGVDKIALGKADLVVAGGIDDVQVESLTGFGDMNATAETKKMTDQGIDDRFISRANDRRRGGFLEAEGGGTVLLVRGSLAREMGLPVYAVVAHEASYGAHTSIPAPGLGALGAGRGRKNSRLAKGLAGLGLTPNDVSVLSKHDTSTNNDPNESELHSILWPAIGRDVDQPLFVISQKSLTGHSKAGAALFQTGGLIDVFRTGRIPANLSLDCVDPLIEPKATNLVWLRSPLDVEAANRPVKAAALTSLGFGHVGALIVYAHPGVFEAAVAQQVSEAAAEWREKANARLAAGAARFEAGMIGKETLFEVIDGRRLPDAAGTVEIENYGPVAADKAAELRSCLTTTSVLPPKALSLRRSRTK
protein,measurement,value
"phosphopantetheine:protein transferase (PPT1) enzyme from B. ammoniagenes, expressed in E. coli as a lacZ fusion protein (enzyme, part only; not given: N-terminal lacZ fusion residues) chain, part: MLDNREAMTVGVDLVHIPGFAEQLSRPGSTFEQVFSPLERRHAQTRRDAAADATNSSLAGSRTEHLAGRWAAKEAFIKAWSQAIYGKPPVIEPDLVNFAEIEVLPDRWGRVALQLKGEVAAKLQESIDVELALSISHDGDYATAQCLLRYQR",fasA activity (radiochemical assay at 37 C for 15 minutes on partially purified E. coli extracts),only when the fasA cosmid (FA) and the pSU19/ppt1 (P) construct were both present was there any measurable fasA activity
